Positions count from the first letter of the chain named.
Columns and labels:
[1] = biological target: T1, human TNFR2 (Novoprotein, Cat #C830) (human, UniProt P20333 23-257, limits assumed); experiment: competition ELISA: antibody titrated against human TNFα-Biotin on coated human TNFR2 (Novoprotein), detection with Streptavidin-HRP [panel B]
T1 construct: construct not described; also called human TNFR2 protein
T1 sequence (looked up): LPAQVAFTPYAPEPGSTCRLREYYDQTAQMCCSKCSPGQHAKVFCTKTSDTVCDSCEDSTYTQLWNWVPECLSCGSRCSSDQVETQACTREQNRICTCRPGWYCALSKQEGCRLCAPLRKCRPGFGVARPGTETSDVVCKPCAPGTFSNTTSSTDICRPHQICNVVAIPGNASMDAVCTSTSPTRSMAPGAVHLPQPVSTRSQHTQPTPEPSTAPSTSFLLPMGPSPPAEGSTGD
Method: (§1) 1 μg/ml human TNFR2 (Novoprotein, Cat #C830) was pre-coated with 100 μl/well […] in an ELISA plate. All the test TNFR2 antibodies were subjected to 2.5-fold gradient dilution from the highest concentration of 30 μg/ml; the diluted antibodies were mixed with 15 ng/ml human TNFα-Biotin (Acro Biosystem, Cat #TNA-H82E3) in equal volume, respectively; the resulting mixture was added to the ELISA plate at 100 μl/well, and incubated with shaking at room temperature for 2.0 hours. The plate was washed, and then a Streptavidin-HRP working solution (diluted at 1:10000) was added at 100 μl/well, and the mixture was incubated with shaking at room temperature for 40 minutes. The plate was washed again, and then the substrate TMB of HRP was added to develop colour. A stop solution was added to stop the reaction, and then a microplate reader (MD 13) was used to read the absorbance value. The inhibitory curve of an antibody was drawn with antibody concentration as the abscissa and corresponding OD value as the ordinate, and fitted with four parameters (GraphPad Prism9) to calculate the IC50 value. The smaller the IC50 value, the stronger the ability of an antibody to inhibit the binding of human TNFα to human TNFR2. The blocking effect of a humanized antibody was normalized to its corresponding human-murine chimeric antibody WT. […]

[2] = biological target: T2, Cynomolgus TNFR2-His (Sino 90102-C08H) (cynomolgus monkey, UniProt A0A2K5VET2 132-366); experiment: ELISA, plate coated with Cynomolgus TNFR2-His, detection with anti-human IgG Fc-HRP [panel A]
T2 construct: Bought protein; also called cynomolgus monkey TNFR2; recombinant cynomolgus monkey TNFR2 protein; not shown: His tag
T2 sequence: T1 sequence (looked up) with S16G, S36P, P117Q, N164H, E210A, S216G, M223V
Method: (§2) The test humanized antibody against TNFR2 (as described in Example 1, the antibody was comprised of variable regions linked to IgG-Fc; the WT chimeric antibody also adopted the IgG-Fc structure) was subjected to 3.33-fold gradient dilution, loaded with 100 μl/well, and incubated with shaking at room temperature for 1.5 hours. The plate was washed, and then a working solution of murine anti-human IgG Fc-HRP (diluted at 1:10000) was added, loaded with 100 μl/well, and incubated with shaking at room temperature for 1.0 hour. The plate was washed again, and then the substrate TMB of HRP was added to develop colour. A stop solution was added to stop the reaction, and then a microplate reader (MD 13) was used to read the absorbance value. The binding curve of an antibody was drawn with antibody concentration as the abscissa and corresponding OD value as the ordinate, and fitted with four parameters (GraphPad Prism9) to calculate the EC50 value. The smaller the EC50 value, the stronger the binding ability of an antibody to human/cynomolgus monkey TNFR2. The binding effect of a humanized antibody was normalized to its corresponding human-murine chimeric antibody WT (see SEQ ID NOs: 38-43 for the sequence). The higher the percentage value, the better the binding effect of the humanized antibody. […]

[3] = biological target: T2, Cynomolgus TNFR2-His (Sino 90102-C08H); experiment: ELISA, plate coated with Cynomolgus TNFR2-His, detection with anti-human IgG Fc-HRP [panel C]
Method: as §2

[4] = biological target: T1, human TNFR2 (Novoprotein, Cat #C830); experiment: competition ELISA: antibody titrated against human TNFα-Biotin on coated human TNFR2 (Novoprotein), detection with Streptavidin-HRP [panel C]
Method: as §1

B1: 219-WT (antibody, V domains shown)
VH: EVQLQESGAELVRPGASVKLSCKASGYSFTNYWMNWVKQRPGQGLEWIGMIHPSDTETRLNQNFKDKATLTVDKSSSTSYMQLSSPTSEDSAVYYCARGEGLGAARSVSMDYWGQGTTVTVSS
VL: DILMTQSPSSLSASLGDRVTISCRASQDISNYLNWYQQKPDGTVKVLIYYTAILHSGVPSRFSGSGSGTDYSLTISNLEQEDIATYFCQQGNTLPWTFGGGTKLEIK
notes: Human-murine chimeric wild-type molecule
**Q.** Which “IC50 (read off the curve)” value [1] does the source give for B1 here?
**A.** ~0.6 µg/mL

B2: 001-WT (antibody, V domains shown)
VH: EVQLQESGGGLVQPGGSLNLSCAASGFAFSTYDLSWVRQTPEKRLEWVAYINNGGISTYYSDTVKGRFTISRDNAKNTLYLQMSSLKSEDTAMYYCVRGPFYGSANYFDYWGQGTTVTVSS
VL: EIVMTQSPASLSLSVGETVTITCRTSESIYSNLPWYQQKQGKSPQLLVYDATKLAEGVPSRFSGSESGTQYSLKINSLQSEDFGTYYCQHFWVTPWTFGGGTKLEIK
notes: Human-murine chimeric wild-type molecule; also called human-murine chimeric antibody WT of #001
**Q.** With B2 as the binder, how does the “EC50 (read off the curve)” value [2] read?
**A.** ~0.01 µg/mL

B3: 224-WT (antibody, V domains shown)
VH: EVQLQESGPEIVKPGASVKLSCTASGFNNKDIYMHWVKQRPEQGLEWIGRIDPATGNTKHDPKFQDKATLSSDTSSNTAYLQFSSLTSEDTAVYYCAHSPYGDFGAMDYWGQGTTVTVSS
VL: DIQMTQSPAIMSASLGERVTMTCTASSSVSSNYLHWYQQKPGSSPKLWIYSTSNLPSGVPARFSGSGSGTSYSLTISSMEAEDAATYYCHQYHRSPWTFGGGTKLEIK
notes: Human-murine chimeric wild-type molecule; also called human-murine chimeric antibody WT of #224
**Q.** What does the source list for B3?
**A.** EC50 (read off the curve) [3]: ~0.01 µg/mL; IC50 (read off the curve) [4]: ~0.5 µg/mL

Source: US20240109974A1 (SHANDONG SIMCERE BIOPHARMACEUTICAL, published 2024)
